Laboratory results taken from patent US7615380B2, “Methods for modulating an immune response by modulating KRC activity” (President and Fellows of Harvard College, priority 2001, dated 2009).
Where two headings read alike, the source gives them in different places.

B1: KRC tr: truncated KRC, amino acid residues 204 to 1055 of SEQ ID NO:2 (protein, listed as Homo sapiens)
chain: PSVLQKHIRSHTGERPYPCGPCGFSFKTKSNLYKHRKSHAHRIKAGLASGMGGEMYPHGLEMERIPGEEFEEPTEGESTDSEEETSATSGHPAELSPRPKQPLLSSGLYSSGSHSSSHERCSLSQSSTAQSLEDPPPFVEPSSEHPLSHKPEDTHTIKQKLALRLSERKKVIDEQAFLSPGSKGSTESGYFSRSESAEQQVSPPNTNAKSYAEIIFGKCGRIGQRTAMLTATSTQPLLPLSTEDKPSLVPLSVPRTQVIEHITKLITINEAVVDTSEIDSVKPRRSSLSRRSSMESPKSSLYREPLSSHSEKTKPEQSLLSLQHPPSTAPPVPLLRSHSMPSAACTISTPHHPFRGSYSFDDHITDSEALSRSSHVFTSHPRMLKPQPAIELPLGGEYSSEEPGPSSKDTASKPSDEVEPKESELTKKTKKGLKTKGVIYECNICGARYKKRDNYEAHKKYYCSELQIAKPISAGTHTSPEAEKSQIEHEPWSQMMHYKLGTTLELTPLRKRRKEKSLGDEEEPPAFESTKSQFGSPGPSDAARNLPLESTKSPAEPSKSVPSLEGPTGFQPRTPKPGSGSESGKERRTTSKEISVIQHTSSFEKSDSLEQPSGLEGEDKPLAQFPSPPPAPHGRSAHSLQPKLVRQPNIQVPEILVTEEPDRPDTEPEPPPKEPEKTEEFQWPQRSQTLAQLPAEKAPPKKKRLRLAEMAQSSGESSFESSVPLSRSPSQESNVSLSGSSRSASFERDDHGKAEAPDPSSDMRPKPLGTHMLTVPSHHPHAREMRRSASEQSPNVSHSAHMTETRSKSFDYGSLSLTGPSAPAPVAPPAGEAPPERRKCFLVRSPSLSRPP

Tests used:
[1] = tested on: AP-1; experiment: AP-1 luciferase reporter in Jurkat cells, KRC-enhanced transactivation after PMA plus ionomycin; type: cell-based, human; conditions: pretreated with Rottlerin (10 μM), PMA plus ionomycin 6 hours
Procedure: FIG. 20(A) Jurkat cells were transiently transfected with AP-1 Luciferase reporter along with KRC and RasN17 DN vectors. 24 hours later cells were pretreated with Rottlerin (10 μM) and stimulated for 6 hours with PMA plus ionomycin. Luciferase activity was measured as above. FIG. 20(B) Jurkat cells were transfected with a GAL4 Luciferase reporter along with a GAL4 DNA binding domain, GAL4-ATF2, or GAL4-ELK1 with or without KRC. 24 hours later, cells were stimulated with PMA plus ionomycin and analyzed for Luciferase activity as above. FIG. 20(C) Jurkat cells were transiently transfected with FLAG-JNK2, and either Vector, KRC, or MKK7. 48 hours later, cells were stimulated with PMA plus ionomycin for 6 hours and JNK activity was determined by immunoprecipitation/kinase assay. Equal amounts of FLAG-Jnk2 protein were immunoprecipitated, as judged by anti-FLAG western blot (lower panel).
For each transfection, 5×10^6 Jurkat cells were incubated with either IL2-Luc, NFAT/AP1-Luc or AP1-Luc reporter DNA together with pEF vector or pEF-KRC and CMV-βGAL as normalization control in 0.4 ml of RPMI and transfected by electroporation (260 v, 975 uF). Transfected cells were cultured at 37° C. for 20 h in RPMI 1640 medium (Gibco BRL) supplemented with 10% fetal bovine serum. Transfected cells were stimulated with PMA (50 ng/ml) and ionomycin (2 uM) for 6 hours prior to luciferase (Promega) and β-galactosidase assays (Galacton-PLUS substrate system, TROPIX, Inc).

[2] = tested on: NIH 3T3 cells; experiment: β-galactosidase cotransfection apoptosis assay in 3T3 cells; type: cell-based; conditions: TNFα 20 ng/ml
Procedure: 3T3 cells were cotransfected with CMV lacZ vector (300 ng per plate) and either empty expression vector or the expression vectors indicated (2 μg of each). Half of the transfected cultured cells were treated with TNFα (20 ng/ml) at 12 hours after the transfection and the other half left untreated. All the cells were fixed and stained at 36 hours after the transfection. The number of blue cells in each transfection was determined by counting six different fields. A representative experiment of three performed is presented.
β-galactosidase cotransfection assays for determination of cell death were performed as described (Hsu, et al.). Transfected NIH 3T3 cells were washed with PBS, fixed in PBS containing 3% paraformaldehyde for 10 min at 4° C., and washed with PBS. Fixed cells were stained overnight with XGal. The number of blue-stained cells was determined microscopically. The average number from one representative experiment of three is shown.

[3] = tested on: NFκB; experiment: NFκB luciferase reporter transfection assay in 293T cells; type: cell-based, human
Procedure: FIGS. 2(A)-2(C) depicts KRC preventing TRAF-dependent NFkB activation. Inhibition of TRAF2 (FIG. 2(A)), TRAF5 (FIG. 2(B)) and TRAF6 (FIG. 2(C)) mediated activation of NFkB by ectopically expressed KRC. 293 T cells (3×10^5 ) were transfected with 25 ng of NFkB luciferase reporter plasmid, 50 ng of CMVβGal and 1 μg of each indicated plasmid and 24 hours post transfection cells were harvested. Data from at least five experiments normalized for β galactosidase activity are shown. Vec refers to the empty MYC vector without the addition of TRAFs.
293 T cells (3×10^5 ) were transfected with 25 ng of NFκB luciferase reporter plasmid, 50 ng of CMVβGal and 1 μg of each indicated plasmid and 24 hours post transfection cells were stimulated for 4 hours with 10 ng/ml of TNFα. (A) KRC and KRC tr (B) dominant negative and antisense KRC (C) antisense KRC in the presence of exogenous TRAF2. Data from at least five experiments normalized for β galactosidase activity are shown.
HEK293 cells ([…] per well) were seeded in 6 well plates, and 12 h later cells were transfected with EFECTENE™ (Qiagen) with 25 ng of a 2XNFκB-luciferase (Luc) reporter gene plasmid and 0.5 μg of the indicated TRAF and KRC expression vectors. Total amounts of transfected DNA were kept constant by supplementing with control empty expression vector plasmids as needed. Cell extracts were prepared 24 h after transfection, and reporter gene activity was determined via the luciferase assay system (PROMEGA). PRSV-βGal vector (50 ng) was used to normalize for transfection efficiency by measuring β galactosidase activity using the Galacton-PLUS substrate system (TROPIX, Inc.). Whenever indicated, the cells were treated for 4 hours with TNFα or IL-1 (10 ng/ml). To generate stable transfectants, EFECTENE™ mediated transfection of the RAW cell line was performed and clones were selected and maintained in complete medium supplemented with G418 (2 mg/ml).

[4] = tested on: JNK; experiment: JNK in vitro kinase assay after transfection of 293 cells; type: cell-based, human; conditions: 293 cells cotransfected with TRAF2, 24 hours
Procedure: Inhibition of TRAF2 (A) and TNFα (B, C) mediated JNK/SAPK activation by ectopic expression of KRC. (A) 293 T cells were transfected with 400 ng of TRAF2 and 2 μg of the indicated expression vector. Twenty-four hours after the transfection, the cells were harvested and lysed, and the endogenous JNK was precipitated with 5 μg of GST-cJUN (1-79) for 4 hours. JNK activity was determined by using GST-cJUN (1-79) as a substrate. (B,C) 293 T cells were cotransfected with vectors encoding HA-tagged JNK2 (500ng) and the indicated expression vector (2 μg). Twenty-four hours after the transfection cells were stimulated for 10 min with 10 ng/ml of TNFα and cells harvested at varying time points. JNK activity was assayed with GST-cJUN (1-79) as substrate.
Anti-HA or anti-FLAG immunoprecipitates were used for immune complex kinase assays that were performed at 30° C. for 30 min with 1 μg of substrate, 10 μCi of γ^32 P ATP, and 10 μM ATP in 30 μl of kinase buffer (20 mM HEPES, pH 7.4, 10 mM MgCl2, 25 mM β-glycerophosphate, 50 μm NA3VO4, and 50 μm DTT). The substrate was GST-c-JUN.

[5] = target: T1, c-Jun (Homo sapiens, UniProt P05412); experiment: Coimmunoprecipitation / in vitro pull down with c-Jun; type: binding
T1 construct: expressed in transfected cells; host or cells: 293T cells (co-IP); in vitro translated, 35S-labelled c-Jun in the pull-down
Procedure: FIG. 21(A) 293T cells were transfected with c-Jun and myc-KRCtr. 48 hours later, lysates were immunoprecipitated with anti-Myc antibody. Immunoprecipitates were probed by western blotting with anti-c-Jun antibody. FIG. 21(B) (left panel) 293T cells were cotransfected with c-Jun and full length His-KRC. 48 hours later, lysates were immunoprecipitated with anti-His antibody (DE8 Omniprobe) and precipitates were probed by western blotting with anti-c-Jun antibody. (right panel) In vitro translated and S35-labelled c-Jun and His-KRCtr were mixed and immunoprecipitated with anti-His antibody. Recovered c-Jun protein was visualized by autoradiography. FIG. 21(C) Jurkat or EL4 T cells were stimulated with PMA plus ionomycin for 45 minutes. Lysates were immunoprecipitated with anti-c-Jun antibody, and immunoprecipitates were probed with specific anti-KRC rabbit antisera. FIG. 21(D) (upper panel) 293T cells were transfected with AP-1 Luciferase along with c-Jun, c-Fos, and KRC. 24 hours later, Luciferase activity was determined as above. (lower panel) 293T cells were transfected with GAL4 Luciferase along with GAL4, GAL4-c-Jun 1-224, or GAL4-c-Fos 208-313. 24 hours later, luciferase activity was determined as above. […]

T1 sequence (P05412 whole entry): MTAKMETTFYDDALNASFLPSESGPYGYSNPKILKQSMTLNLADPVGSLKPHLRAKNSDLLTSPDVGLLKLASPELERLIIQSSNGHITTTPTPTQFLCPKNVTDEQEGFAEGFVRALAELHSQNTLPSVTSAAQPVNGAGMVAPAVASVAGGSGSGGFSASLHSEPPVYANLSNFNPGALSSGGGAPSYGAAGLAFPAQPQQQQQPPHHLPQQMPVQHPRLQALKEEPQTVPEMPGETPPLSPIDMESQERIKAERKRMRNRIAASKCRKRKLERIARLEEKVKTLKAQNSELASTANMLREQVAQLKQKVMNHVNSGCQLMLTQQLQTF

Molecule	KRC transactivation of the AP-1 reporter [1]	KRC transactivation of the AP-1 reporter ([1]; listed as rottlerin)	TNFα-induced apoptosis (TNF mediated cytotoxicity) [2]	NFκB activation induced by TRAF5 and TRAF6 ([3]; 293T cells)	NFkB-dependent transactivation ([3]; 293T cells, absence of exogenous TRAFs)	TRAF2-induced NFκB activation ([3]; 293T cells, exogenous TRAF2)	TNFα-induced NFκB activation ([3]; 293 cells, 10 ng/ml TNFα 4 hours)	TRAF2-dependent JNK activation [4]	physical association with c-Jun [5]	physical association with c-Jun ([5]; listed as KRCtr)
CC(=O)c1c(O)c(C)c(O)c(Cc2c(O)c3c(c(C(=O)/C=C/c4ccccc4)c2O)OC(C)(C)C=C3)c1O [Rottlerin]	blocked	abolished the ability of KRC to enhance AP-1 transactivation	–	–	–	–	–	–	–	–
RasN17: dominant negative Ras	abolished the ability of KRC to enhance AP-1 transactivation	–	–	–	–	–	–	–	–	–
B1	–	–	The same effect was observed	substantially but not completely affected	blocked NFkB-dependent transactivation	blocked TRAF2-induced NFκB activation	strongly inhibited TNFα-induced NFκB activation	blocked TRAF2-dependent JNK activation	physically associated with c-Jun	interacted with c-Jun
